Measurements published in US20240392020A1 (JIANGSU HENGRUI PHARMACEUTICALS, published 2024).
Where two headings read alike, the source gives them in different places.

T1: B7H3 on the recombinant cell line CT26-B7H3 (UniProt Q5ZPR3 29-534, limits assumed)
T1 construct: whole, on cells
T1 sequence (looked up): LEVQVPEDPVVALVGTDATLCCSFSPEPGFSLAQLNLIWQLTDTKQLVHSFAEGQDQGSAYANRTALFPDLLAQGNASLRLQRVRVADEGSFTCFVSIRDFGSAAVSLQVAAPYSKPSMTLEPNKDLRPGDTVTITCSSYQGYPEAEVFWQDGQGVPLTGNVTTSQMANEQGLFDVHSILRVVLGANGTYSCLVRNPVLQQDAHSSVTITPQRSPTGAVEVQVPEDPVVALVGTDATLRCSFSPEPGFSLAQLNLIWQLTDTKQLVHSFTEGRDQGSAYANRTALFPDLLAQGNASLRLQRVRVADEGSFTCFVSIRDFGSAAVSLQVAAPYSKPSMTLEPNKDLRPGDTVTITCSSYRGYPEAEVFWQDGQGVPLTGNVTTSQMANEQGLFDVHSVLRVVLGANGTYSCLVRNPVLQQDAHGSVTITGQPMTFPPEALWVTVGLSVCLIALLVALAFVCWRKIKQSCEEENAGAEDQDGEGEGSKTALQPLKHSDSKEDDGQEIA


Legend:
[1] = target: T1, B7H3 on the recombinant cell line …; experiment: FACS, CT26-B7H3 cells
[2] = target: T1, B7H3 on the recombinant cell line …; experiment: FACS, CT26-B7H3 cells; remark: listed apart in the source
[3] = target: T2, hIL-5 (human, UniProt P05113 20-134); experiment: ELISA
T2 construct: bought
Procedure: (§1) For an antibody targeting a soluble protein, the binding activity of the antibody against the soluble protein was detected by ELISA. […] After the blocking was completed, the blocking solution was discarded; and the plate was washed 3 times with a PBST buffer (pH 7.4, PBS containing 0.1% tween-20). 100 μL of the antibody solution diluted in a gradient was added to each well, and the mixture was incubated at 37° C. for 1 h. After the incubation was completed, the plate was washed 3 times with PBST. […] The plate was washed 3 times with PBST. […] The reaction was stopped by adding 50 μL of 1 M H₂SO₄ to each well. The absorbance values at 450 nm were read on a microplate reader, the binding curves of the antibodies to an antigen were fitted with software, and the EC₅₀ values were calculated.

[4] = target: T2, hIL-5; experiment: ELISA; remark: listed apart in the source
Procedure: as §1

[5] = target: T2, hIL-5; experiment: ELISA; remark: listed apart in the source
Procedure: as §1

Row | EC50 [2] | EC50 [3] | Binder | further results
1 | 8.19 nM | – | F12 (antibody) heavy: not shown light: DTVVTQEPSFSVSPGGTVTLTCGLSSGSVSTSHYPSWYQQTPGQAPRMLIYNTNTRSSGVPDRFSGSILGNKAALTITGAQADDESDYYCAIHVDRDIWVFGGGTKLTVLQGSPPEFLRFPRPVRVVSGAEAELKCVVLGEPPPVVVWEKGGQQLAASERLSFPADGAEHGLLLTAALPTDAGVYVCRARNAACEAYAAAAVTVLEPP | –
2 | – | 1.74 nM | H0 (antibody, human IgG1, kappa) heavy: not shown light: DIQMTQSPSSVSASVGDRVTITCRASQDIANYLSWYQQKPGKSPKLLIYGTSNLEVGVPSRFSGSRSGTDFTLTISSLQPEDFATYYCLQDKEFPRTFGGGTKVEIKRTVAAPSVFIFPPSDEQLKSGTASVVCLLNNFYPREAKVQWKVDNALQSGNSQESVTEQDSKDSTYSLSSTLTLSKADYEKHKVYACEVTHQGLSSPVTKSFNRGEC | –
3 | – | 2.7 nM | H4 (antibody) heavy: not shown light: DIQMTQSPSSVSASVGDRVTITCRASQDIANYLSWYQQKPGKSPKLLIYGTSNLEVGVPSRFSGSRSGTDFTLTISSLQPEDFATYYCLQDKEFPRTFGGGTKVEIKQGSPPCFLRFPRPVRVVSGAEAELKCVVLGEPPPVVVWEKGGQQLAASERLSFPADGAEHGLLLTAALPTDAGVYVCRARNAAGEAYAAAAVTVLEPP | EC50 [4]: 3.28 nM
4 | – | 24.4 nM | R1 (antibody) heavy: not shown light: DIQMTQSPSSLSASVGDRVTITCLASEGISSYLAWYQQKPGKAPKLLIYGANSLQTGVPSRFSGSGSATDYTLTISSLQPEDFATYYCQQSYKFPNTFGQGTKVEVKGILQPDPPANITVTAVARNPRWLSVTWQDPHSWNSSFYRLRFELRYRAERSKTFTTWMVKDLQHHCVIHDAWSGLRHVVQLRAQEEFGQGEWSEWSPEAMGTPW | –
5 | – | 2.75 nM | H3 (antibody) heavy: not shown light: DIQMTQSPSSVSASVGDRVTITCRASQDIANYLSWYQQKPGKSPKLLIYGTSNLEVGVPSRFSGSRSGTDFTLTISSLQPEDFATYYCLQDKEFPRTFGGGTKVEIKSGAPRFLTRPKAFVVSVGKDATLSCQIVGNPTPQVSWEKDQQPVAAGARFRLAQDGDLYRLTILDLALGDSGQYVCRARNAIGEAFAAVGLQVDAEA | EC50 [4]: 3.24 nM
6 | – | 1.75 nM | R0 (antibody, human IgG1, kappa) heavy: not shown light: DIQMTQSPSSLSASVGDRVTITCLASEGISSYLAWYQQKPGKAPKLLIYGANSLQTGVPSRFSGSGSATDYTLTISSLQPEDFATYYCQQSYKFPNTFGQGTKVEVKRTVAAPSVFIFPPSDEQLKSGTASVVCLLNNFYPREAKVQWKVDNALQSGNSQESVTEQDSKDSTYSLSSTLTLSKADYEKHKVYACEVTHQGLSSPVTKSFNRGEC | –
7 | – | 2.02 nM | R6 (antibody) heavy: not shown light: DIQMTQSPSSLSASVGDRVTITCLASEGISSYLAWYQQKPGKAPKLLIYGANSLQTGVPSRFSGSGSATDYTLTISSLQPEDFATYYCQQSYKFPNTFGQGTKVEVKQGSPPCFLRFPRPVRVVSGAEAELKCVVLGEPPPVVVWEKGGQQLAASERLSFPADGAEHGLLLTAALPTDAGVYVCRARNAAGEAYAAAAVTVLEPP | –
8 | – | 1.58 nM | R3 (antibody) heavy: not shown light: DIQMTQSPSSLSASVGDRVTITCLASEGISSYLAWYQQKPGKAPKLLIYGANSLQTGVPSRFSGSGSATDYTLTISSLQPEDFATYYCQQSYKFPNTFGQGTKVEVKGIPPKIEALPSDISIDEGKVLTVACAFTGEPTPEVTWSCGGRKIHSQEQGRFHIENTDDLTTLIIMDVQKQDGGLYTLSLGNEFGSDSATVNIHIRSI | –
9 | – | 1.67 nM | R4 (antibody) heavy: not shown light: DIQMTQSPSSLSASVGDRVTITCLASEGISSYLAWYQQKPGKAPKLLIYGANSLQTGVPSRFSGSGSATDYTLTISSLQPEDFATYYCQQSYKFPNTFGQGTKVEVKGIPPKIEALPSDISIDEGKVLTVACAFTGEPTPEVTWSCGGRKIHSQEQGRFHIENTDDLTTLIIMDVQKQDGGLYTLSLGNEFGSDSATVNIHIRSI | –

More lines, now with the values behind:

Row | Binder | EC50 [2] | EC50 [3] | further results
10 | F3 (antibody) heavy: not shown light: DTVVTQEPSFSVSPGGTVTLTCGLSSGSVSTSHYPSWYQQTPGQAPRMLIYNTNTRSSGVPDRFSGSILGNKAALTITGAQADDESDYYCAIHVDRDIWVFGGGTKLTVLSGAPRFLTRPKAFVVSVGKDATLSCQIVGNPTPQVSWEKDQQPVAAGARFRLAQDGDLYRLTILDLALGDSGQYVCRARNAIGEAFAAVGLQVDAEA | 2.64 nM | – | EC50 [1]: 2.83 nM
11 | F11 (antibody) heavy: not shown light: DTVVTQEPSFSVSPGGTVTLTCGLSSGSVSTSHYPSWYQQTPGQAPRMLIYNTNTRSSGVPDRFSGSILGNKAALTITGAQADDESDYYCAIHVDRDIWVFGGGTKLTVLQGSPPEFLRFPRPVRVVSGAEAELKCVVLGEPPPVVVWEKGGQQLAASERLSFPADGAEHGLLLTAALPTDAGCYVCRARNAAGEAYAAAAVTVLEPP | 6.15 nM | – | –
12 | F15 (antibody) heavy: not shown light: DTVVTQEPSFSVSPGGTVTLTCGLSSGSVSTSHYPSWYQQTPGQAPRMLIYNTNTRSSGVPDRFSGSILGNKAALTITGAQADDESDYYCAIHVDRDIWVFGGGTKLTVLQGSPPEFLRFPRPVRVVSGAEAELKSVVLGEPPPVVVWEKGGQQLAASERLSFPADGAEHGLLLTAALPTDAGVYVSRARNAACEAYAAAAVTVLEPP | 4.44 nM | – | –
13 | F4 (antibody) heavy: not shown light: DTVVTQEPSFSVSPGGTVTLTCGLSSGSVSTSHYPSWYQQTPGQAPRMLIYNTNTRSSGVPDRFSGSILGNKAALTITGAQADDESDYYCAIHVDRDIWVFGGGTKLTVLQGSPPCFLRFPRPVRVVSGAEAELKCVVLGEPPPVVVWEKGGQQLAASERLSFPADGAEHGLLLTAALPTDAGVYVCRARNAAGEAYAAAAVTVLEPP | 3.01 nM | – | EC50 [1]: 2.17 nM
14 | F14 (antibody) heavy: not shown light: DTVVTQEPSFSVSPGGTVTLTCGLSSGSVSTSHYPSWYQQTPGQAPRMLIYNTNTRSSGVPDRFSGSILGNKAALTITGAQADDESDYYCAIHVDRDIWVFGGGTKLTVLQGSPPEFLRFPRPVRVVSGAEAELKSVVLGEPPPVVVWEKGGQQLAASERLSFPADGAEHGLLLTAALPTDAGCYVSRARNAAGEAYAAAAVTVLEPP | 5.15 nM | – | –
15 | F13 (antibody) heavy: not shown light: DTVVTQEPSFSVSPGGTVTLTCGLSSGSVSTSHYPSWYQQTPGQAPRMLIYNTNTRSSGVPDRFSGSILGNKAALTITGAQADDESDYYCAIHVDRDIWVFGGGTKLTVLQGSPPEFLRFPRPVRVVSGAEAELKCVVLGEPPPVVVWEKGGQQLAASERLSFPADGAEHGLLLTAALPTDAGVYVCRARNAAGECYAAAAVTVLEPP | 6.08 nM | – | –
16 | H1 (antibody) heavy: not shown light: DIQMTQSPSSVSASVGDRVTITCRASQDIANYLSWYQQKPGKSPKLLIYGTSNLEVGVPSRFSGSRSGTDFTLTISSLQPEDFATYYCLQDKEFPRTFGGGTKVEIKGILQPDPPANITVTAVARNPRWLSVTWQDPHSWNSSFYRLRFELRYRAERSKTFTTWMVKDLQHHCVIHDAWSGLRHVVQLRAQEEFGQGEWSEWSPEAMGTPW | – | 19.4 nM | –
17 | H2 (antibody) heavy: not shown light: DIQMTQSPSSVSASVGDRVTITCRASQDIANYLSWYQQKPGKSPKLLIYGTSNLEVGVPSRFSGSRSGTDFTLTISSLQPEDFATYYCLQDKEFPRTFGGGTKVEIKFDPVYKVKPNPPHNLSVINSEELSSILKLTWTNPSIKSVIILKYNIQYRTKDASTWSQIPPEDTASTRSSFTVQDLKPFTEYVFRIRCMKEDGKGYWSDWSEEASGIT | – | 24.4 nM | –
18 | R2 (antibody) heavy: not shown light: DIQMTQSPSSLSASVGDRVTITCLASEGISSYLAWYQQKPGKAPKLLIYGANSLQTGVPSRFSGSGSATDYTLTISSLQPEDFATYYCQQSYKFPNTFGQGTKVEVKFDPVYKVKPNPPHNLSVINSEELSSILKLTWTNPSIKSVIILKYNIQYRTKDASTWSQIPPEDTASTRSSFTVQDLKPFTEYVFRIRCMKEDGKGYWSDWSEEASGIT | – | 18.4 nM | –
19 | R5 (antibody) heavy: not shown light: DIQMTQSPSSLSASVGDRVTITCLASEGISSYLAWYQQKPGKAPKLLIYGANSLQTGVPSRFSGSGSATDYTLTISSLQPEDFATYYCQQSYKFPNTFGQGTKVEVKSGAPRFLTRPKAFVVSVGKDATLSCQIVGNPTPQVSWEKDQQPVAAGARFRLAQDGDLYRLTILDLALGDSGQYVCRARNAIGEAFAAVGLQVDAEA | – | 1.59 nM | EC50 [4]: 4.13 nM
20 | R13 (antibody) heavy: not shown light: DIQMTQSPSSLSASVGDRVTITCLASEGISSYLAWYQQKPGKAPKLLIYGANSLQTGVPSRFSGSGSATDYTLTISSLQPEDFATYYCQQSYKFPNTFGQGTKVEVKSGAPRFLTRPKAFVVSVGKDATLSSQIVGNPTPQVSWEKDQQPVAAGARFRLAQDGDLYRLTILDLALGDSGQYVSRARNAIGEAFACVGLQVDAEA | – | – | EC50 [5]: 0.4 nM
21 | R14 (antibody) heavy: not shown light: DIQMTQSPSSLSASVGDRVTITCLASEGISSYLAWYQQKPGKAPKLLIYGANSLQTGVPSRFSGSGSATDYTLTISSLQPEDFATYYCQQSYKFPNTFGQGTKVEVKSGAPRFKTRPKAFVVSVGKDATLSSQIVGNPTPQVSWEKDQQPVAAGARFRLAQDGDLYRLKILDLALGDSGQYVSRARNAIGEAFACVGLQVDAEA | – | – | EC50 [5]: 0.2 nM
